Experimental data taken from patent US20230265175A1.

Molecular target: PD17(p)PS413 (24AWF)
Assay: peptide-coated ELISA (plate coated with 1 µg/ml peptide 24AWF, anti-human IgG-HRP, ABTS, OD405)

- EC50 (read off the curve): 0.04 µg/mL
B1: V5-AFM-hIgG4-S228P (antibody, V domains shown)
VH: EVQLVESGGGLVQPGGSLRLSCAASGFTFSSFALNWVRQAPGKGLEWVGHIRSKTNNYVTFYAASVKGRFTVSRDDSQNTAYLQMNSLKTEDTATYYCVRRGPRDSWFGYWGQGTLVTVSS
VL: DIVMTQSPLSLPVTLGEPASISCRSSQKIVHRNANTYLEWYLQKPGQSPQLLIYTVSNRFSGVPDRFSGSGSGTDFTLKISRVEAEDLGVYYCFQGSYLPLTFGGGTKVEIKR
